# Data as given in patent publication US20240182593A1 (YUHAN, published 2024).
# T1: human OX40 protein (Sino Biological, Cat. 10481-H08H) (human, UniProt P43489 29-216)
# T1 construct: Bought recombinant protein; also called CD134; TNFRSF4
# T1 sequence (looked up): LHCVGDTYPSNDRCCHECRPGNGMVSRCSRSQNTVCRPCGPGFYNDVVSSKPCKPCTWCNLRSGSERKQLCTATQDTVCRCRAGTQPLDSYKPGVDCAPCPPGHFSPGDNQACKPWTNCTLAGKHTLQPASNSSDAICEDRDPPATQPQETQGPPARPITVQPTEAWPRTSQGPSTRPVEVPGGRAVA
# T2: human OX40 expressed on cells (human, UniProt P43489 29-277)
# T2 construct: whole, on cells
# T2 sequence (looked up): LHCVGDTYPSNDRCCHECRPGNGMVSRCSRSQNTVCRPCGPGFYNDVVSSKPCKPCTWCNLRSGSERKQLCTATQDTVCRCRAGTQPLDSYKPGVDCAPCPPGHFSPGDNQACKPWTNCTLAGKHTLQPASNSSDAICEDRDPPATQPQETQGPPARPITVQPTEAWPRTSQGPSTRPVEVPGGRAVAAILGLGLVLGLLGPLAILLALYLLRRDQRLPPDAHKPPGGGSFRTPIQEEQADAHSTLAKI
# T3: mouse OX40 (ACRO, Cat. OX0-M5259) (mouse, UniProt P47741 20-211)
# T3 construct: Bought protein; construct not described; also called mouse OX40 antigen
# T3 sequence (looked up): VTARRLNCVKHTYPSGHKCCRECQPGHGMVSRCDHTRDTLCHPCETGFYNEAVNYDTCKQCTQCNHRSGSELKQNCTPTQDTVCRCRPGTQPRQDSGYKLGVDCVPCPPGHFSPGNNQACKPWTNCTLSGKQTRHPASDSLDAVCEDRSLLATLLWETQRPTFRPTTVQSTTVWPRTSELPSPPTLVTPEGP
# Tests used:
# [1] = molecular target: T1, human OX40 protein (Sino Biological, …); assay: SPR (BIACORE T200), same test as for the antibodies (capture on protein A chip, human OX40 as analyte), 1:1 model
# Description: (§1) Quantitative analysis of antigen binding of the OX40-binding antibody prepared in Example 1.3 was performed using a BIACORE T200. The experimental conditions using surface plasmon resonance (SPR) were as follows: Protein A-immobilized CM5 chip (GE Healthcare) was used. 10 mM Glycine-HCl (pH 1.5) was used as the regeneration buffer, and HBS-EP (pH 7.4) was used as the running buffer, antibody dilution, and antigen dilution buffer. OX40-binding antibody was diluted with HBS-EP (pH 7.4), and human OX40 protein (Sino Biological, Cat. 10481-H08H) was serially diluted two-fold from 200 nM. Analysis was performed at all 11 concentrations (200, 100, 50, 25, 12.5, 6.25, 3.13, 1.56, 0.78, 0.39, 0 nM) including 0 nM. First, the OX40-binding antibody was captured on a chip immobilized with protein A (Thermo, Cat. 21184). In the association phase of human OX40 protein, the association time was set to 400-600 seconds and the flow rate was set to 30 μL/min. In the dissociation phase, the dissociation time was set to 400-2000 seconds and the flow rate was set to 30 μL/min. In the regeneration phase, the flow rate was set to 100 μL/min, and the flow time was set to 30 seconds. By using BIACORE Evaluation software, the data were analyzed and fitted in a 1:1 binding model.
# [2] = molecular target: T2, human OX40 expressed on cells; assay: flow cytometry on activated human CD4+ T cells, fitted MFI curve
# Description: (§2) The activity of the OX40-binding antibody prepared in Example 1.3 to bind to activated human T cells was tested as follows.
# (§3) To induce OX40 expression, cells were activated for several days prior to the binding assay. Briefly, human CD4⁺ T cells ([…] Technologies) were cultured in the presence of IL-2 (Roche Life Sciences, Indianapolis, IN) and phytohemaglutinin-leucoagglutinin (PHA-L; Roche Life Sciences, Indianapolis, IN) at a concentration of 10 μg/ml for 2 days to activate the human CD4⁺ T cells. The activated CD4⁺ T cells were incubated with OX40-binding antibody serially diluted 5-fold from 1 μM. The bound antibody was detected with a fluorescently labeled anti-human IgG polyclonal secondary antibody, and cells were stained with FITC mouse anti-human CD134 (OX40) antibody clone ACT35 (BD Pharmingen) to detect CD4⁺ T cells expressing OX40. Fluorescence intensity of staining was measured using a BD FACSCantoII flow cytometry analyzer. Mean fluorescence intensity (MFI) of OX40-binding antibody staining was calculated using FlowJo software.
# [3] = molecular target: T2, human OX40 expressed on cells; assay: flow cytometry on activated human CD4+ T cells
# Description: as §2, §3
# [4] = molecular target: T1, human OX40 protein (Sino Biological, …); assay: ELISA, human OX40 protein coated at 0.1 ug/ml, antibody diluted 4-fold from 100 nM, HRP secondary antibody, O.D. 450 nm
# Description: (§4) ELISA was performed to quantitatively analyze the antigen-binding activity of the OX40-binding antibody prepared in Example 1.3 to the antigen.
# (§5) More specifically, the antigen human OX40 protein (Sino Biological, Cat. 10481-H08H) was added to a 96-well plate (Thermo Scientific, Cat. 469949) at a concentration of 0.1 μg/ml, and coated overnight at 4° C. Here, 200 μl of 3% BSA (Millipore, Cat. 820451) was placed in each well and blocked at room temperature for 2 hours. The OX40-binding antibody (Example 1.3) serially diluted 4-fold from 100 nM was added thereto and reacted at room temperature for 2 hours. After washing 4 times with 300 μl of PBS/Tween-20, HRP-bound secondary antibody (Abcam, Cat. Ab98624) was treated and reacted at room temperature for 1 hour. Then, it was washed 4 times with 300 μl of PBS/Tween-20. Following 100 μl of TMB was added thereto to develop color, 100 μl of 2 N H₂SO₄ was added to stop the reaction. The absorbance was measured at 450 nm using a microplate reader (Perkin Elmer, Victor X5).
# [5] = molecular target: T3, mouse OX40 (ACRO, Cat. OX0-M5259); assay: ELISA, mouse OX40 coated at 0.5 ug/ml, serially diluted antibody, goat anti-human Fab secondary antibody, O.D. 450 nm
# Description: (§6) To determine the cross-species reactivity of anti-OX40 antibodies to mouse and cynomolgus (Cyno) monkey OX40, mouse OX40 (ACRO, Cat. OX0-M5259) and cynomolgus monkey OX40 (R&D, Cat. 10311-OX) antigens were coated on a 96-well plate at a concentration of 0.5 μg/ml, and the plate was incubated overnight at 4° C. After blocking using 3% BSA, serially diluted OX40 antibodies were treated and incubated for 1 hour at room temperature. Goat anti-human Fab (Jackson ImmunoResearch, Cat. 109-036-097) was diluted 1: 5000 and used as a secondary antibody for detection. Absorbance at 450 nm was read using a microplate reader (Molecular Device). To determine EC50 values for dose-dependent binding of OX40 binding antibodies in mice and cynomolgus monkeys, dose-response data were analyzed using a 4-parameter logistic model with GraphPad Prism.
# [6] = molecular target: T4, cynomolgus monkey OX40 (R&D, Cat. 10311-OX) (cynomolgus monkey); assay: ELISA, cynomolgus monkey OX40 coated at 0.5 ug/ml, serially diluted antibody, goat anti-human Fab secondary antibody, O.D. 450 nm
# T4 construct: Bought protein; construct not described; also called Cynomolgus monkey OX40 antigen; Cyno OX40
# Description: as §6
# [7] = molecular target: T1, human OX40 protein (Sino Biological, …); assay: SPR (BIACORE T200), antibody captured on protein A chip, human OX40 as analyte, 1:1 model
# Description: as §1
# [8] = molecular target: T1, human OX40 protein (Sino Biological, …); assay: ELISA, human OX40 protein coated at 0.1 ug/ml, serially diluted antibody, HRP secondary antibody, O.D. 450 nm
# Description: as §4, §5
Binder,koff [1] [s⁻¹],Bottom [2],Top [2],EC50 [3] [nM],EC50 (read off the curve) [4] [nM],binding result [5],EC50 (read off the curve) [6] [nM],Kd [7] [nM],koff [7] [s⁻¹],kon [7] [M⁻¹ s⁻¹],EC50 (read off the curve) [8] [nM]
"OX40L-Fc protein (ACROBiosystems, Cat #. OX0-H5255) (Fc fusion, UniProt P23510 51-183, looked up, Bought; not shown: Fc part of the bought fusion protein) QVSHRYPRIQSIKVQFTEYKKEKGFILTSQKEDEIMKVQNNSVIINCDGFYLISLKGYFSQEVNISLHYQKDEEPLFQLKKVRSVNSLMVASLTYKDKVYLNVTTDNTSLDDFHVNGGELILIHQNPGEFCVL",0.00119,,,,,,,,,,
"O15 (antibody, V domains shown) VH: EVQLLESGGGLVQPGGSLRLSCAASGFTFSSYSMSWVRQAPGKGLEWVSMISSGGGSTYYADSVKGRFTISRDNSKNTLYLQMNSLRAEDTAVYYCARHWRYFDYWGQGTLVTVSS VL: QSVLTQPPSASGTPGQRVTISCSGSSSNIGNNYVSWYQQLPGTAPKLLIYADSKRPSGVPDRFSGSKSGTSASLAISGLRSEDEADYYCGAWDSSLSGYVFGGGTKLTVLG",,7.36,102,2.65,~0.2,,,,,,
"O410 (antibody, human IgG1, lambda, V domains shown) VH: EVQLLESGGGLVQPGGSLRLSCAASGFTFSDYYMSWVRQAPGKGLEWVSGIYSDGSRKYYADSVKGRFTISRDNSKNTLYLQMNSLRAEDTAVYYCARHWSRFDYWGQGTLVTVSS VL: QSVLTQPPSASGTPGQRVTISCSGSSSNIGSNYVTWYQQLPRTAPKLLIYYDSNRPSGVPDRFSGSKSGTSASLAISGLRSEDEADYYCGAWDDSLSGYVFGGGTKLTVLG",,1.04,95.9,0.253,~0.03,no binding (tested: about 25000 pM),~0.02,1.24,4.17e-05,,
"O212 (antibody, V domains shown, also called O212 antibody) VH: EVQLLESGGGLVQPGGSLRLSCAASGFTFSDYAMSWVRQAPGKGLEWVSWIYYDSGSKYYADSVKGRFTISRDNSKNTLYLQMNSLRAEDTAVYYCAKGPGPNGQLAFDYWGQGTLVTVSS VL: QSVLTQPPSASGTPGQRVTISCTGSSSNIGSNSVSWYQQLPGTAPKLLIYANSHRPSGVPDRFSGSKSGTSASLAISGLRSEDEADYYCGAWDYSLSGYVFGGGTKLTVLG",,5.53,99.4,2.17,,,~0.02,24.4,0.00167,68300,
"O31C (antibody, human IgG1, lambda, V domains shown) VH: EVQLLESGGGLVQPGGSLRLSCAASGFTFSDYDMSWVRQAPGKGLEWVSSISPSSGSIYYADSVKGRFTISRDNSKNTLYLQMNSLRAEDTAVYYCAKDSIWCTNSRCYYDNAMDVWGQGTLVTVSS VL: QSVLTQPPSASGTPGQRVTISCSGSSSNIGNNAVSWYQQLPGTAPKLLIYSDSNRPSGVPDRFSGSKSGTSASLAISGLRSEDEADYYCGSWDYSLSAYVFGGGTKLTVLG",,,,,,,~0.08,122,0.00238,,~0.03
"O34 (antibody, V domains shown) VH: EVQLLESGGGLVQPGGSLRLSCAASGFTFSDYYMSWVRQAPGKGLEWVSGISSSGGNKYYADSVKGRFTISRDNSKNTLYLQMNSLRAEDTAVYYCARHWKRFDYWGQGTLVTVSS VL: QSVLTQPPSASGTPGQRVTISCTGPSSNIGNNDVSWYQQLPGTAPKLLIYANSNRPSGVSDRFSGSKSGTSASLAISGLRSEDEADYYCGTWDYSLSGYVLGGGTKLTVLG",,5.77,99.9,0.182,~0.005,,~0.02,2.4,5.63e-05,,
"O35 (antibody, V domains shown) VH: EVQLLESGGGLVQPGGSLRLSCAASGFTFSDYSMSWVRQAPGKGLEWVSAISSDGGSTYYADSVKGRFTISRDNSKNTLYLQMNSLRAEDTAVYYCARRWQTFDYWGQGTLVTVSS VL: QSVLTQPPSASGTPGQRVTISCTGSSSNIGSNAVSWYQQLPGTAPKLLIYHDSHPPSGVPDRFSGSKSGTSASLAISGLRSEDEADYYCGAWDSSLSGYVFGGGTKLTVLG",,-0.361,97.3,1.22,~0.006,,,19.9,0.000203,,
"O32 (antibody, V domains shown) VH: EVQLLESGGGLVQPGGSLRLSCAASGFTFSSYSMSWVRQAPGKGLEWVSVISSGGGSTYYADSVKGRFTISRDNSKNTLYLQMNSLRAEDTAVYYCARHWRYFDYWGQGTLVTVSS VL: QSVLTQPPSASGTPGQRVTISCSGSSSNIGNNYVSWYQQLPGTAPKLLIYADSKRPSGVPDRFSGSKSGTSASLAISGLRSEDEADYYCGAWDSSLSGYVFGGGTKLTVLG",,7.69,102,0.102,~0.001,,~0.2,2.05,4.13e-05,,
